Measurements as given in publication PMC3386925.

Molecular target: calcitonin receptor (bovine (endogenous in bovine articular cartilage explants))

share of CTR-positive cells (immunohistochemistry) in the deep layer of T3-induced explants after four days of co-stimulation with 1 nM and 10 nM sCT: < 43%
Substance: salmon calcitonin (peptide)
